In US20120107330A1 (published 2012):
Ends that are not written are not given here.

Assays:
rat albumin = molecular target: T1, rat albumin (rat, UniProt P02770 25-608); test: BIAcore; rat albumin
T1 construct: also called rat serum albumin

[1] = molecular target: T2, human TNFR1 on MRC-5 cells (human, UniProt P19438 30-455); test: cell-based or functional assay
T2 sequence (looked up): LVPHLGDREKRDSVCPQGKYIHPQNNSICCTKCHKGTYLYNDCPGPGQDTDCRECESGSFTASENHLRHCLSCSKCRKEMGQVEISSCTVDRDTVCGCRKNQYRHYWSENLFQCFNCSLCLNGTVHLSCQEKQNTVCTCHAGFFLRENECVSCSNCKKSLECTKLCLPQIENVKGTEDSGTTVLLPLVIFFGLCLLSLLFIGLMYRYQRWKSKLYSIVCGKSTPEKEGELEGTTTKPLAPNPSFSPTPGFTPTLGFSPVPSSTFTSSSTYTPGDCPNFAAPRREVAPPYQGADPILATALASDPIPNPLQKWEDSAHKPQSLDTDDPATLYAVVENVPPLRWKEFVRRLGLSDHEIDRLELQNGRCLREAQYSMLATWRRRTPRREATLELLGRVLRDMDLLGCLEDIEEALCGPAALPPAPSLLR

[2] = molecular target: T3, mouse serum albumin (MSA, Sigma-Aldrich) (mouse, UniProt P07724 25-608); test: BIAcore, MSA on CM5 chip
T3 construct: also called mouse albumin
Protocol: (§1) FIG. 22. BIAcore analysis for binding of DOM0100-AlbudAb in-line fusions to mouse serum albumin (MSA). MSA (Sigma-Aldrich) was coated on a BIAcore CM5 chip using EDC/NHS chemistry according to manufacturer's instructions. Subsequently, the DMS constructs, each consisting N-terminally to C-terminally of an anti-TNFR1 dAb-Linker-AlbudAb and identified in Table 6, were injected at 1 μM over the MSA surface and binding was monitored. […] The corresponding BIAcore trace for each DMS clone is indicated with an arrow.
After expression and purification, all constructs were tested on the BIAcore for binding to both mouse and human serum albumin. The off-rates were determined and used to discriminate between the AlbudAbs for their suitability in prolonging the half-life of the fusion molecule. Whereas the linker had little influence on the affinity of the AlbudAb for albumin, a significant difference existed between the dAbs and their albumin affinity. The best AlbudAb for mouse binding was DOM7h-11-15 followed by DOM7m-16 and DOM7h-11-12 (FIG. 22).

[3] = molecular target: T4, human serum albumin (HSA, Sigma-Aldrich) (human, UniProt P02768 25-609); test: BIAcore, HSA on CM5 chip
T4 construct: also called human albumin
Protocol: as §1, with “23.” for “22.”, “human” for “mouse”, “(HSA). HSA” for “(MSA). MSA”, “HSA” for “MSA”

[4] = molecular target: T3, mouse serum albumin (MSA, Sigma-Aldrich); test: BIAcore; mouse albumin
[5] = molecular target: T3, mouse serum albumin (MSA, Sigma-Aldrich); test: BIAcore, MSA; DMS0168 (DOM7m-16 AlbudAb)
[6] = molecular target: T3, mouse serum albumin (MSA, Sigma-Aldrich); test: BIAcore, MSA; DMS0169 (DOM7h-11-12 AlbudAb)
[7] = molecular target: T5, peptide A3 (negative control fragment of human TNFR1) (human, cysteine pairing not given here; also: biotinylated, position not given here); test: BIAcore, biotinylated peptide A3 on SA chip
T5 construct: also called control peptide
T5 peptide: SGSGNDCPGPGQDTDCREC

[8] = molecular target: T2, human TNFR1 on MRC-5 cells; test: cell-based or functional assay; remark: listed apart in the source
[9] = molecular target: dog TNFR1 (recombinant, R&D Systems cat no. 4017-TR-025/CF, biotinylated) (dog); test: BIAcore, dog TNFR1 on SA chip
[10] = molecular target: T6, peptide E5 (overlapping domain-3 peptide of human TNFR1) (human, also: biotinylated, position not given here); test: BIAcore, biotinylated peptide E5 on SA chip, dAb at 2.5 µM
T6 construct: also called peptide 3
T6 peptide: SGSGNQYRHYWSENLFQCF

[11] = molecular target: T7, peptide D2 (domain-1 peptide of human TNFR1) (human, cysteine pairing not given here; also: biotinylated, position not given here); test: BIAcore, biotinylated peptide D2 on SA chip, dAb at 2.5 µM
T7 construct: also called peptide 1
T7 peptide: SGSGNSICCTKCHKGTYLY

[12] = molecular target: T8, peptide D5 (domain-3 peptide of human TNFR1) (human, also: biotinylated, position not given here); test: BIAcore, biotinylated peptide D5 on SA chip, dAb at 2.5 µM
T8 construct: also called peptide 2
T8 peptide: SGSGCRKNQYRHYWSENLF

[13] = molecular target: T9, human TNFR1 (recombinant, R&D Systems cat no. 636-R1/CF, biotinylated) (human, UniProt P19438 30-211, limits assumed, biotinylated with EZ-Link NHS-LC-LC-biotin); test: BIAcore, human TNFR1
T9 construct: it is not tied to the BIAcore reagent; also called p55; hTNFR1
T9 sequence (looked up): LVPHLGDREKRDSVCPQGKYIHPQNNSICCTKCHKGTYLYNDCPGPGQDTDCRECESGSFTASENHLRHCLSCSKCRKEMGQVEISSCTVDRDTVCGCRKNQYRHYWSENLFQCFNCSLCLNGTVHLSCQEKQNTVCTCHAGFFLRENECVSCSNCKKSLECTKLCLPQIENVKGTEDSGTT

[14] = molecular target: T9, human TNFR1 (recombinant, R&D Systems …); test: BIAcore, human TNFR1 on SA chip
Description: (§2) A significant advantage for an anti-TNFR1 dAb would be cross-reactivity between different species. Given the limited conservation of the sequence of the extracellular domain of TNFR1 between mouse, dog, Cynomologus monkey and human (FIG. 6), it would be exceptional for any antibody or single variable domain to recognize TNFR1 of these different species at similar affinities. […] For each of these experiments the TNFR1 was biotinylated using EZ-Link NHS-LC-LC-biotin (Pierce cat no. 21343), according to the manufacturer's instructions, followed by binding of the biotinylated TNFR1 to a Streptavidin-coated BIAcore chip. […] Examples for binding to the different species are shown in FIGS. 7 and 8, with a summary of the results in Table 2.

[15] = molecular target: T10, mouse TNFR1 (recombinant, R&D Systems cat no. 425-R1-050/CF, biotinylated) (mouse, UniProt P25118 22-212, biotinylated with EZ-Link NHS-LC-LC-biotin); test: BIAcore, mouse TNFR1 on SA chip
T10 construct: also called murine TNFR1; biotinylated mouse TNFR1
T10 sequence (looked up): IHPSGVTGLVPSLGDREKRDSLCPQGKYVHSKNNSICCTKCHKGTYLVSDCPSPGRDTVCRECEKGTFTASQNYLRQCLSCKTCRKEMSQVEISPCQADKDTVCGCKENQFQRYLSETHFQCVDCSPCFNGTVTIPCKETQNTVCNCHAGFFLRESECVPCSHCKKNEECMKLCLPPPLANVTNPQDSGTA
Description: as §2

T1 sequence (P02770 25-608 limits assumed): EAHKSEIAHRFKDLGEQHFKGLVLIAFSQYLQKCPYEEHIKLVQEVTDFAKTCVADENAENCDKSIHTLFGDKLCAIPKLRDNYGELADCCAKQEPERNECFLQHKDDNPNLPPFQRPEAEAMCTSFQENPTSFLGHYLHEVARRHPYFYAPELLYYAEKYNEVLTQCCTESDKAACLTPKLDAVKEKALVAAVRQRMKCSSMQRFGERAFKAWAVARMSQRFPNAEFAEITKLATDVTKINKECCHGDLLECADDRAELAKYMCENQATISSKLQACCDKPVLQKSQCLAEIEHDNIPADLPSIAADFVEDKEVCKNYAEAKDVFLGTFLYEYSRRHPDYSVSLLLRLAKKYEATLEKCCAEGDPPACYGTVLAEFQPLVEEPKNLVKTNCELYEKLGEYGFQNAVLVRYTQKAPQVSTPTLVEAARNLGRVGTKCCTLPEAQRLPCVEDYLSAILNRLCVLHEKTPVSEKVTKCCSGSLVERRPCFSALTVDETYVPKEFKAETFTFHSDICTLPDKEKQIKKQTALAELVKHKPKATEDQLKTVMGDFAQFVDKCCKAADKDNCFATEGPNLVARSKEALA
T4 sequence (P02768 25-609 limits assumed): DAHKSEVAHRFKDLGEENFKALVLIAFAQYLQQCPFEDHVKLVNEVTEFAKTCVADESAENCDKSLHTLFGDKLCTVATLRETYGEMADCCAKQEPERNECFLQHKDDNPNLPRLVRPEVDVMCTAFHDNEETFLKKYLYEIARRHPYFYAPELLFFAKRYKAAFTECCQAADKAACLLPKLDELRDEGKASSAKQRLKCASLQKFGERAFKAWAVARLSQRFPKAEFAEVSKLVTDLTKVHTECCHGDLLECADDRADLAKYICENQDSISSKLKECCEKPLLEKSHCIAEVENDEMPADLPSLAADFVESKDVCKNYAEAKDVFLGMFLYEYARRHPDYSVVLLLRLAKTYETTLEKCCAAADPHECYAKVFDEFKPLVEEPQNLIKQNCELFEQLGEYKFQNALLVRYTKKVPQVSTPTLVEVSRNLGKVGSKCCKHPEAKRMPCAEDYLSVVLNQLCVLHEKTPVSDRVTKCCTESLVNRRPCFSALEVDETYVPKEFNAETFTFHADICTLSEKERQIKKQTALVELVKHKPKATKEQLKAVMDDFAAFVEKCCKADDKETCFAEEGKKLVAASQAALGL

B1: DMS0182 (bispecific antibody)
chain: EVQLLESGGGLVQPGGSLRLSCAASGFTFVKYSMGWVRQAPGKGPEWVSQISNTGDRTYYADSVKGRFTISRDNSKNTLYLQMNSLRAEDTAVYYCAIYTGRWEPFDYWGQGTLVTVSSASTDIQMTQSPSSLSASVGDRVTITCRASRPIGTTLSWYQQKPGKAPKLLIWFGSRLQSGVPSRFSGSGSGTDFTLTISSLQPEDFATYYCAQAGTHPTTFGQGTKVEIKRAAAEQKLISEEDLN
notes: in-line fusion of an anti-TNFR1 dAb and an anti-serum albumin dAb (AlbudAb)
With B1 the Kd (rat albumin) was greater than 1000 nM, the “ND50 (MRC5)” value [1] was 6 nM and the koff [2] was 0.75 s⁻¹. It also gave a koff [3] of 0.17 s⁻¹ and a Kd [4] greater than 1000 nM.

B2: DMS0168 (bispecific antibody)
chain: EVQLLESGGGLVQPGGSLRLSCAASGFTFVKYSMGWVRQAPGKGLEWVSQISNTADRTYYAHSVKGRFTISRDNSKNTLYLQMNSLRAEDTAVYYCAIYTGRWVPFEYWGQGTLVTVSSASTSGPSDIQMTQSPSSLSASVGDRVTITCRASQSIIKHLKWYQQKPGKAPKLLIYGASRLQSGVPSRFSGSGSGTDFTLTISSLQPEDFATYYCQQGARWPQTFGQGTKVEIKRAAAEQKLISEEDLN
notes: anti-TNFR1 dAb / AlbudAb in-line fusion
With B2 the “ND50 (MRC5)” value [1] was 16 nM and the Kd [5] was roughly 200 nM.

B3: DMS0169 (bispecific antibody)
chain: EVQLLESGGGLVQPGGSLRLSCAASGFTFVKYSMGWVRQAPGKGLEWVSQISNTADRTYYAHSVKGRFTISRDNSKNTLYLQMNSLRAEDTAVYYCAIYTGRWVPFEYWGQGTLVTVSSASTSGPSDIQMTQSPSSLSASVGDRVTITCRASRPIGTMLSWYQQKPGKAPKLLILFGSRLQSGVPSRFSGSGSGTDFTLTISSLQPEDFATYYCAQAGTHPTTFGQGTKVEIKRAAAEQKLISEEDLN
notes: as for B2
With B3 the “ND50 (MRC5)” value [1] was 2.7 nM and the Kd [6] was roughly 200 nM.

B4: DOM1h-574-16 (other)
VH: EVQLLESGGGLVQPGGSLRLSCAASGFTFVKYSMGWVRQAPGKGPEWVSQISNTGDRTYYADSVKGRFTISRDNSKNTLYLQMNSLRAEDTAVYYCAIYTGRWEPFDYWGQGTLVTVSS
notes: VH dAb; also called DOM1h-57-16 [sic]; the DOM0100 dAb
B4 was tested, and the binding result [7] was “no binding (tested: 2.5 µM)”, the “MRC-5 ND50 (TNFα-mediated IL-8 release)” value [8] was 8 nM and the Kd [9] was 20 nM. B4: binds [10]; binds [11]; binds [12]. It also gave a Kd [13] of 1 nM, a Kd [14] of 1 nM and a Kd [15] of 20 nM.
